Results taken from PMC4783044, “Stoichiometry and Change of the mRNA Closed-Loop Factors as Translating Ribosomes Transit from Initiation to Elongation” (PLoS ONE, 2016).
Blank lines part the entries; values can stand above or below the molecule they belong to.

Columns and labels:
Flag-PAB1 [1] = molecular target: T1, Flag-PAB1 (yeast, UniProt P04147 1-577); assay: co-IP + AUC; one-step anti-Flag bead purification from yeast crude extract (Tris pH 7.5, 0.15 M KCl, 2 mM MgCl2, 10% glycerol, 4°C), Flag peptide elution, then AU-FDS of the GFP fusion with AU-A230 or AU-A260 (20°C, 15,000 rpm); material migrating at 77S (monosomal translating complex); cycloheximide added to cells; cells on glucose (elongation), or glucose depleted 10 min and glucose added back for 1 min or 0 min (initiation)
T1 sequence (looked up): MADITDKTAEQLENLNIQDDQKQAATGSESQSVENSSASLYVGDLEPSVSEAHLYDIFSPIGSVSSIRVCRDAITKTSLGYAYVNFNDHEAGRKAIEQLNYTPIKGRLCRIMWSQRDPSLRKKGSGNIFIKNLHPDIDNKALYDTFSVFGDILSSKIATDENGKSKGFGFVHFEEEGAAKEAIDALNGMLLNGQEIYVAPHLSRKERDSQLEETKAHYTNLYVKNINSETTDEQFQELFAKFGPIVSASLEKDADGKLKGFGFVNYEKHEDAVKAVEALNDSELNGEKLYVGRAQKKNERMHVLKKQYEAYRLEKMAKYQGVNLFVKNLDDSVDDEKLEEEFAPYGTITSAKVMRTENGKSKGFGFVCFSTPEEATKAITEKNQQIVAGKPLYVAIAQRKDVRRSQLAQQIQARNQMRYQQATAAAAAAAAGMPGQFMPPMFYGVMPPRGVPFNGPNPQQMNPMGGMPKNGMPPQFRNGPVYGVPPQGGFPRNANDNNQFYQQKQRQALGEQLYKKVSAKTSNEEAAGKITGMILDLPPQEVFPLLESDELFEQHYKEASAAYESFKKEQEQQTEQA

eIF4E-Flag [2] = molecular target: T2, eIF4E-Flag (yeast, UniProt P07260 1-213); assay: co-IP + AUC; as a1, but material migrating from 90S to 200S (polysomal translating complexes); cells on glucose (elongation), or glucose depleted 10 min and glucose added back for 1 min (initiation); settings: partners not purified
T2 sequence (looked up): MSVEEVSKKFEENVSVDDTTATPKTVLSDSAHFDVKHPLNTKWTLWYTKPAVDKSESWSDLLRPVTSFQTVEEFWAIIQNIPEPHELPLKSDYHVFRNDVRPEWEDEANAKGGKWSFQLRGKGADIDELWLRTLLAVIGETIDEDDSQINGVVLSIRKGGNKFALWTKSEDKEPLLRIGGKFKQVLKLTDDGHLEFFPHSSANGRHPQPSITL

eIF4E-Flag [3] = molecular target: T2, eIF4E-Flag; assay: co-IP + AUC; one-step anti-Flag bead purification from yeast crude extract (Tris pH 7.5, 0.15 M KCl, 2 mM MgCl2, 10% glycerol, 4°C), Flag peptide elution, then AU-FDS of the GFP fusion with AU-A230 or AU-A260 (20°C, 15,000 rpm); material migrating at 77S (monosomal translating complex); cycloheximide added to cells; cells on glucose (elongation), or glucose depleted 10 min and glucose added back for 1 min or 0 min …; settings: partners not purified
Flag-SBP1 (yeast) = Flag-SBP1 (yeast) (UniProt P10080); assay: co-IP + AUC; one-step anti-Flag bead purification from yeast crude extract (Tris pH 7.5, 0.15 M KCl, 2 mM MgCl2, 10% glycerol, 4°C), Flag peptide elution, then AU-FDS of the GFP fusion with AU-A230 or AU-A260 (20°C, 15,000 rpm); material migrating at 77S (monosomal translating complex); cycloheximide added to cells; cells on glucose (elongation), or glucose depleted 10 min and glucose added back for 1 min or 0 min (initiation)
Flag-PAB1 [4] = molecular target: T1, Flag-PAB1; assay: co-IP + AUC; one-step anti-Flag bead purification from yeast crude extract (Tris pH 7.5, 0.15 M KCl, 2 mM MgCl2, 10% glycerol, 4°C), Flag peptide elution, then AU-FDS of the GFP fusion with AU-A230 or AU-A260 (20°C, 15,000 rpm); material migrating at 77S (monosomal translating complex); cycloheximide added to cells; cells on glucose (elongation), or glucose depleted 10 min and glucose added back for 1 min or 0 min …; settings: partners not purified
Flag-PAB1 [5] = molecular target: T1, Flag-PAB1; assay: co-IP + AUC; as a1, but material migrating from 90S to 200S (polysomal translating complexes); cells on glucose (elongation), or glucose depleted 10 min and glucose added back for 1 min (initiation); settings: partners not purified

Chain of Flag-SBP1 (yeast) (P10080 whole entry, the tested form may be a part): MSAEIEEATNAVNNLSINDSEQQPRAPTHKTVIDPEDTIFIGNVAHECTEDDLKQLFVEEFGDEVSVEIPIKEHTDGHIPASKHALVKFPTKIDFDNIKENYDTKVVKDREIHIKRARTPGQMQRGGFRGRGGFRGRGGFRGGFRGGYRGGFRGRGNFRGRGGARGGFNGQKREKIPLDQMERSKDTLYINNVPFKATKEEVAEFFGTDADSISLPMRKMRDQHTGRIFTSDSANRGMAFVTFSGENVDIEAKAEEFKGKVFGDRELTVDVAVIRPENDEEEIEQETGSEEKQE

relative level in the 77S monosomal translating complex, mRNA set at 100 (elongation) (Flag-PAB1 [1]): < 0.3 per 100 mRNA
Molecule: PUB1-GFP (from UniProt P32588 1-453) (natural protein)

relative level in the polysomal translating complexes (90S to 200S), mRNA set at 100 (elongation) (eIF4E-Flag [2]): 74 per 100 mRNA
relative level in the polysomal translating complexes (90S to 200S), mRNA set at 100 (initiation) (eIF4E-Flag [2]): 59 per 100 mRNA
relative level in the 77S monosomal translating complex, mRNA set at 100 (elongation) (eIF4E-Flag [3]): 12 per 100 mRNA
relative level in the 77S monosomal translating complex, mRNA set at 100 (initiation) (eIF4E-Flag [3]): 15 per 100 mRNA
relative level in the 77S monosomal translating complex, mRNA set at 100 (elongation) (Flag-SBP1 (yeast)): < 0.3 per 100 mRNA
B1: PAB1-GFP (natural protein, yeast, UniProt P04147 1-577, looked up)
chain: T1 sequence (looked up)
notes: the printed name puts GFP after the protein; source: yeast strain carrying the GFP fusion, in crude extract

relative level in the 77S monosomal translating complex, mRNA set at 100 (elongation) (Flag-PAB1 [4]): 1 per 100 mRNA
relative level in the 77S monosomal translating complex, mRNA set at 100 (initiation) (Flag-PAB1 [4]): 1.8 per 100 mRNA
B2: SSD1-GFP (natural protein, yeast, UniProt P24276 1-1250, looked up)
chain: MSKNSNVNNNRSQEPNNMFVQTTGGGKNAPKQIHVAHRRSQSELTNLMIEQFTLQKQLEQVQAQQQQLMAQQQQLAQQTGQYLSGNSGSNNHFTPQPPHPHYNSNGNSPGMSAGGSRSRTHSRNNSGYYHNSYDNNNNSNNPGSNSHRKTSSQSSIYGHSRRHSLGLNEAKKAAAEEQAKRISGGEAGVTVKIDSVQADSGSNSTTEQSDFKFPPPPNAHQGHRRATSNLSPPSFKFPPNSHGDNDDEFIATSSTHRRSKTRNNEYSPGINSNWRNQSQQPQQQLSPFRHRGSNSRDYNSFNTLEPPAIFQQGHKHRASNSSVHSFSSQGNNNGGGRKSLFAPYLPQANIPELIQEGRLVAGILRVNKKNRSDAWVSTDGALDADIYICGSKDRNRALEGDLVAVELLVVDDVWESKKEKEEKKRRKDASMQHDLIPLNSSDDYHNDASVTAATSNNFLSSPSSSDSLSKDDLSVRRKRSSTINNDSDSLSSPTKSGVRRRSSLKQRPTQKKNDDVEVEGQSLLLVEEEEINDKYKPLYAGHVVAVLDRIPGQLFSGTLGLLRPSQQANSDNNKPPQSPKIAWFKPTDKKVPLIAIPTELAPKDFVENADKYSEKLFVASIKRWPITSLHPFGILVSELGDIHDPDTEIDSILRDNNFLSNEYLDQKNPQKEKPSFQPLPLTAESLEYRRNFTDTNEYNIFAISELGWVSEFALHVRNNGNGTLELGCHVVDVTSHIEEGSSVDRRARKRSSAVFMPQKLVNLLPQSFNDELSLAPGKESATLSVVYTLDSSTLRIKSTWVGESTISPSNILSLEQLDEKLSTGSPTSYLSTVQEIARSFYARRINDPEATLLPTLSLLESLDDEKVKVDLNILDRTLGFVVINEIKRKVNSTVAEKIYTKLGDLALLRRQMQPIATKMASFRKKIQNFGYNFDTNTADELIKGVLKIKDDDVRVGIEILLFKTMPRARYFIAGKVDPDQYGHYALNLPIYTHFTAPMRRYADHVVHRQLKAVIHDTPYTEDMEALKITSEYCNFKKDCAYQAQEQAIHLLLCKTINDMGNTTGQLLTMATVLQVYESSFDVFIPEFGIEKRVHGDQLPLIKAEFDGTNRVLELHWQPGVDSATFIPADEKNPKSYRNSIKNKFRSTAAEIANIELDKEAESEPLISDPLSKELSDLHLTVPNLRLPSASDNKQNALEKFISTTETRIENDNYIQEIHELQKIPILLRAEVGMALPCLTVRALNPFMKRV
notes: source: yeast strain carrying the GFP fusion, in crude extract

relative level in the polysomal translating complexes (90S to 200S), mRNA set at 100 (elongation) (Flag-PAB1 [5]): 27 per 100 mRNA
relative level in the polysomal translating complexes (90S to 200S), mRNA set at 100 (initiation) (Flag-PAB1 [5]): 38 per 100 mRNA
relative level in the 77S monosomal translating complex, mRNA set at 100 (elongation) (Flag-PAB1 [4]): 16 per 100 mRNA
relative level in the 77S monosomal translating complex, mRNA set at 100 (initiation) (Flag-PAB1 [4]): 23 per 100 mRNA
relative level in the 77S monosomal translating complex, mRNA set at 100 (elongation) (Flag-SBP1 (yeast)): < 0.3 per 100 mRNA
B3: eIF4E-GFP (natural protein, yeast, UniProt P07260 1-213, looked up)
chain: T2 sequence (looked up)
notes: as for B1

relative level in the polysomal translating complexes (90S to 200S), mRNA set at 100 (elongation) (Flag-PAB1 [5]): 18 per 100 mRNA
relative level in the polysomal translating complexes (90S to 200S), mRNA set at 100 (initiation) (Flag-PAB1 [5]): 26 per 100 mRNA
relative level in the polysomal translating complexes (90S to 200S), mRNA set at 100 (elongation) (eIF4E-Flag [2]): 75 per 100 mRNA
relative level in the polysomal translating complexes (90S to 200S), mRNA set at 100 (initiation) (eIF4E-Flag [2]): 79 per 100 mRNA
relative level in the 77S monosomal translating complex, mRNA set at 100 (elongation) (Flag-PAB1 [4]): 5.6 per 100 mRNA
relative level in the 77S monosomal translating complex, mRNA set at 100 (initiation) (Flag-PAB1 [4]): 8.7 per 100 mRNA
relative level in the 77S monosomal translating complex, mRNA set at 100 (elongation) (eIF4E-Flag [3]): 19 per 100 mRNA
relative level in the 77S monosomal translating complex, mRNA set at 100 (initiation) (eIF4E-Flag [3]): 20 per 100 mRNA
relative level in the 77S monosomal translating complex, mRNA set at 100 (elongation) (Flag-SBP1 (yeast)): < 0.3 per 100 mRNA
B4: eIF4G1-GFP (natural protein, yeast, UniProt P39935 1-952, looked up)
chain: MTDETAHPTQSASKQESAALKQTGDDQQESQQQRGYTNYNNGSNYTQKKPYNSNRPHQQRGGKFGPNRYNNRGNYNGGGSFRGGHMGANSSNVPWTGYYNNYPVYYQPQQMAAAGSAPANPIPVEEKSPVPTKIEITTKSGEHLDLKEQHKAKLQSQERSTVSPQPESKLKETSDSTSTSTPTPTPSTNDSKASSEENISEAEKTRRNFIEQVKLRKAALEKKRKEQLEGSSGNNNIPMKTTPENVEEKGSDKPEVTEKTKPAEEKSAEPEVKQETPAEEGEQGEKGQIKEESTPKVLTFAERLKLKKQQKEREEKTEGKENKEVPVQEETKSAIESAPVPPSEQVKEETEVAETEQSNIDESATTPAIPTKSDEAEAEVEAEAGDAGTKIGLEAEIETTTDETDDGTNTVSHILNVLKDATPIEDVFSFNYPEGIEGPDIKYKKEHVKYTYGPTFLLQFKDKLNVKADAEWVQSTASKIVIPPGMGRGNRSRDSGRFGNNSSRGHDFRNTSVRNMDDRANSRTSSKRRSKRMNDDRRSNRSYTSRRDRERGSYRNEEKREDDKPKEEVAPLVPSANRWVPKFKSKKTEKKLAPDGKTELLDKDEVERKMKSLLNKLTLEMFDAISSEILAIANISVWETNGETLKAVIEQIFLKACDEPHWSSMYAQLCGKVVKELNPDITDETNEGKTGPKLVLHYLVARCHAEFDKGWTDKLPTNEDGTPLEPEMMSEEYYAAASAKRRGLGLVRFIGFLYRLNLLTGKMMFECFRRLMKDLTDSPSEETLESVVELLNTVGEQFETDSFRTGQATLEGSQLLDSLFGILDNIIQTAKISSRIKFKLIDIKELRHDKNWNSDKKDNGPKTIQQIHEEEERQRQLKNNSRSNSRRTNNSSNRHSFRRDAPPASKDSFITTRTYSQRNSQRAPPPKEEPAAPTSTATNMFSALMGESDDEE
notes: eIF4G1 of yeast, GFP fusion; the printed name puts GFP after the protein; also called eIFG1; source: yeast strain carrying the GFP fusion at the chromosomal location, in crude extract

relative level in the 77S monosomal translating complex, mRNA set at 100 (elongation) (Flag-PAB1 [4]): 2.5 per 100 mRNA
relative level in the 77S monosomal translating complex, mRNA set at 100 (initiation) (Flag-PAB1 [4]): 3.5 per 100 mRNA
B5: SLF1-GFP (natural protein, yeast, UniProt Q12034 1-447, looked up)
chain: MSSQNLNDNPKNTSSAAEDKKKQTSSLKLAPIPTTSPWKSSSPDSNTVIPVEELRDISKTAKPSKNGSGSIKLTSNTKWTPITPSVIISGSKDTNSKSGKNSKNSKTNKKMKKRGKYNNDINKKDFNGQTNSTSEISNVSNLESKPLDANAKVNIHSSSGATANGNIKRITNNNNSTNGRQSRNYQNRNGKTRYNNNSRHSQAANNAISFPNNYQARPEYIPNASHWLNNNSRNSYKQLSYFRQQQYYNNINYQQQLQTPYYYSMEPIFKSIESIKNQIEFYFSEENLKTDEFLRSKFKKANDGFIPMSLIGKFYRMVNLSLGGDPNLILASMREVLQHKETNHLEIALGSIEGAQKNMADDFNPLENYFIRRENWAEYAMESNFDENDDETEKYNIEKLLGPNDLDNYSYMGYPNFFPSNENGKKSQSYDQGEISRQFEQNLQIND
notes: as for B2
